Experimental data: paper PMC9603599, “NAC1 Maintains Root Meristem Activity by Repressing the Transcription of E2Fa in Arabidopsis”

T1: GST-NAC1(1-199) (Arabidopsis thaliana, UniProt Q84TE6 1-199)
T1 sequence: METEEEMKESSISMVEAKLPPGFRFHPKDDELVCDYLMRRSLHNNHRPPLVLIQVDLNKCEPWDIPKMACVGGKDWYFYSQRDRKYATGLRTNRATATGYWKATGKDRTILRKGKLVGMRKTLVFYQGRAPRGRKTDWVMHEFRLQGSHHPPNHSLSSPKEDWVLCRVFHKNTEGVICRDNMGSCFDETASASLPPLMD


Molecular target: T1, GST-NAC1(1-199)
Experiment: EMSA; LightShift Chemiluminescent EMSA kit (Thermo 20148), manufacturer's instructions; buffer, salt, pH and temperature not stated
Conditions: protein: recombinant, tags: GST (N-terminal, pGEX-4T-1), chain copies: 2, label: biotin

| Binder | binding result (printed strands differ by one nt: F1 has CCCGTT where R1 complement gives CCGTT (1-nt bulge or typo), P1 = F1/R1 by number) | binding result (blunt, P2 = F2/R2 by number) |
| --- | --- | --- |
| E2Fa promoter probe P1 (E2Fa-BIO-F1/R1) (dsDNA) DNA 1: CGTGAAATGCCAGTGGTCTATGATCGGATTCTCTGTTTCCCGTTCTCCTTCTTTTTTTGGGCCTTAAATCCGTTT DNA 2: AAACGGATTTAAGGCCCAAAAAAAGAAGGAGAACGGAAACAGAGAATCCGATCATAGACCACTGGCATTTCACG | binds |  |
| E2Fa promoter probe P2 (E2Fa-BIO-F2/R2) (dsDNA) DNA 1: CGTGTAGAGTTGCGATTTGCAGAGAATTGTGATTCTACAATTGGAGGCAAGATGATGAATGTGTGAACTGATTAGCGTAA DNA 2: TTACGCTAATCAGTTCACACATTCATCATCTTGCCTCCAATTGTAGAATCACAATTCTCTGCAAATCGCAACTCTACACG |  | binds |
